The record followed here is article PMC4489804.

The assay has as its target DCP1-CFP (Arabidopsis thaliana) (UniProt Q9SJF3). Nature of the assay: FRET or BRET; FRET acceptor photobleaching in transiently transfected Arabidopsis leaf epidermis cells; DCP1-CFP donor, YFP-gSPI or free YFP acceptor, 35S promoter; whole cells and stationary P-bodies measured. In general terms: In BRET a luciferase serves as donor, and the signal depends on an acceptor being close.
Chain of UniProt Q9SJF3 (Q9SJF3 whole entry): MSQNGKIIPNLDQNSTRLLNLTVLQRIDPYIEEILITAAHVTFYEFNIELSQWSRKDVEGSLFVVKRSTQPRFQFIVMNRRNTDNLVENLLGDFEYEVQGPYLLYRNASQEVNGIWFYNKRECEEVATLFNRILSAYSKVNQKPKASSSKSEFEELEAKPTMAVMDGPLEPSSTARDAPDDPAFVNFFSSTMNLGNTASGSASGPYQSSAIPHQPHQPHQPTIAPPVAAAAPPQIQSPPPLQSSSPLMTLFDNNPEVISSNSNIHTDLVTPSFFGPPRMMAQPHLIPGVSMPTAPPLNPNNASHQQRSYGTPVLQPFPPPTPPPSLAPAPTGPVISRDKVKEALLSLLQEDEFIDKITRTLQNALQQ

In the case of “YFP-tagged full-length genomic SPI, F4HZB2 1-3601”, the FRET efficiency (FRETE), immobile P-bodies was 23% and the FRET efficiency (FRETE), whole cells was found to be 27%.
